Results on one protein are retold here after FireProtDB (doi:10.1110/ps.8.7.1530).

For the data set the following is noted: Escherichia coli (strain K12); pH 7.4; 22 °C; GdnHCl; Fluorescence; Sodium phosphate 20 mM; reversible: yes; whole UniProt chain shown.

B1: PTS system mannose-specific EIIAB component wild type, P69797 (protein)
chain: MTIAIVIGTHGWAAEQLLKTAEMLLGEQENVGWIDFVPGENAETLIEKYNAQLAKLDTTKGVLFLVDTWGGSPFNAASRIVVDKEHYEVIAGVNIPMLVETLMARDDDPSFDELVALAVETGREGVKALKAKPVEKAAPAPAAAAPKAAPTPAKPMGPNDYMVIGLARIDDRLIHGQVATRWTKETNVSRIIVVSDEVAADTVRKTLLTQVAPPGVTAHVVDVAKMIRVYNNPKYAGERVMLLFTNPTDVERLVEGGVKITSVNVGGMAFRQGKTQVNNAVSVDEKDIEAFKKLNARGIELEVRKVSTDPKLKMMDLISKIDK
Consider B1, for which the “denaturant midpoint (higher = more stable)” value turned out to be 2.3 M and the unfolding free energy was 10.5 kcal/mol.
